# Experimental data taken from US20250179215A1, “PLASMIN-BINDING VHHS” (RHEINISCHE FRIEDRICH-WILHELMS-UNIVERSITÄT BONN, priority 2022, published 2025).
# Legend:
# [1] = test system: citrate-anticoagulated pooled normal human plasma; experiment: Rotational thrombelastometry clot formation parameters in plasma; type: biochemical; settings: VHHs or BPTI 2.4 μM, TXA 2.4 μg/ml; tPA 0.1 μg/ml
# Procedure: FIG. 10. The impact of VHHs on the clot formation parameters in plasma monitored by rotational thrombelastometry. […] After addition of tPA to reach a final concentration of 0.1 μg/ml, coagulation was initiated by addition of recombinant tissue factor (Dade® Innovin®) dissolved 1:100 in calcium chloride solution (0.2 M). The viscoelasticity of the formed clot was measured in terms of (A) clotting time, (B) maximum clot firmness, and (C) maximum clot elasticity. A non-binder VHH (GFP-enhancer VHH) was used as negative control. Mean values and SD were calculated out of three measurements.
# (§1) The impact of VHHs on the fibrinolytic activity in plasma and whole blood was monitored using rotational thrombelastometry using the ROTEM delta system (TEM Innovations Ltd., Munich, Germany). […] After addition of 0.1 μg/ml tPA, coagulation was initiated by addition of recombinant tissue factor (Dade Innovin, Siemens Healthcare, Marburg, Germany) dissolved 1:100 in calcium chloride (0.2 M). The viscoelasticity of the formed clot was measured in terms of key parameters including clotting time, maximal clot firmness, maximum clot elasticity, maximum lysis, lysis index after 60 minutes, and lysis onset time.
# [2] = test system: citrate-anticoagulated whole blood; experiment: Rotational thrombelastometry clot lysis in tPA-spiked whole blood; type: biochemical; settings: tPA-spiked whole blood
# Text: To further test the fibrinolysis-activating properties of VHHs in an ex-vivo model of hyperfibrinolysis, a whole blood based assay can be used whereat citrate-anticoagulated whole blood in the presence of VHHs is spiked with tPA and clot formation and the fibrinolysis rate of the formed clot monitored by thrombelastometry after initiation of clotting by addition of CaCl2) solution containing recombinant TF.
# FIG. 4. Influence of VHHs on endogenous fibrinolysis. (A) Citrate-anticoagulated whole blood was mixed with VHHs A11 or C5 and with tPA to achieve a final concentration of 0.5 μg/ml and clot formation was induced by addition of CaCl2) (0.2 M). (B) Lysis index at 60 min(C) Maximum lysis rates, and (D) lysis onset time were recorded. Mean values and SD were calculated out of three measurements.
# as §1
# plasmin [3] = target: T1, plasmin (Homo sapiens, UniProt P00747); experiment: Stability of plasmin (autocatalytic degradation) in activation buffer; type: biochemical; settings: 100 mM TXA or lysine in buffer
# T1 construct: human Lys-plasmin which is prepared from homogeneous Glu-plasminogen using uPA; purchased Haematologic Technologies, Inc. (Essex Junction, VT)
# plasmin [4] = target: T1, plasmin; experiment: Activated factor V-inactivation assay (prothrombinase assay); type: biochemical
# Procedure: FIG. 6. (A) Influence of VHHs on plasmin-mediated FVa cleavage. Plasmin (1.5 nM) was incubated with increasing concentrations of VHHs for 30 min at 37° C. After addition of FVa (30 pM) and further incubation for 30 min, FXa (0.52 pM), prothrombin (10 nM) and a fluorogenic thrombin substrate (100 μM) were added and the FVa-dependent thrombin generation was measured. The FVa inactivation rate measured in the absence of VHHs or plasmin inhibitors was set as 100%. […] The data are presented as mean±SD of two independent measurements.
# Plasmin-mediated inactivation of activated factor V (FVa) was measured using a prothrombinase assay as recently described (Hamedani 2020). Briefly, 1.5 nM plasmin in assay buffer (20 mM Tris-HCl, 137 mM NaCl, 10 mg/ml phospholipids, 5 mM CaCl2, 1 mg/ml BSA, pH 7.4) was preincubated with VHHs (0.1 nM-10 μM final concentrations) for 30 min at 37° C. Then, 60 μl of the mixture were mixed with 60 μl of […] FVa. After further incubation for 30 min, 25 μl of the reaction mixture were mixed with 50 μl of 1.3 μM human FXa and 100 μM fluorogenic thrombin substrate (Boc-Asp(OBzl)-Pro-Arg-AMC) and 50 μl of 10 nM human prothrombin. Thrombin catalyzed substrate hydrolysis was monitored at λex of 360 nm and λem of 460 nm using the Synergy 2 microplate reader.
# plasmin [5] = target: T1, plasmin; experiment: Michaelis-Menten kinetics of plasmin-mediated cleavage of fluorogenic peptide substrate; type: biochemical; settings: plasmin 5 nM; VHHs 1 μM, BPTI 3 nM, TXA 7.86 mg/ml; w/o ligand 51.8
# Procedure: Subsequently, 50 μl of the fluorogenic substrate (3.16-3,160 μM final concentration in assay buffer) was added. Substrate hydrolysis rates were monitored by kinetic measurements using the Synergy 2 microplate reader. Apparent Michaelis-Menten constants (Km) and the turn-over number (kcat) values for substrate hydrolysis were calculated from best fit values of the Michaelis-Menten equation and the catalytic efficiencies were expressed as ratios of kcat/Km.
# CI, confidence interval. ^a The turnover number (kcat) was calculated using Vmax values extracted from Michaelis-Menten least squares fit.
# plasminogen = target: T2, plasminogen (Homo sapiens, UniProt P00747); experiment: Plasmin generation assay (tPA-mediated plasminogen activation, purified system); type: biochemical; settings: at the assessed / higher concentrations
# T2 construct: Plasma derived human Glu-plasminogen; purchased Haematologic Technologies, Inc. (plasminogen); Boehringer Ingelheim (tPA)
# Procedure: In order to assess the influence of VHHs on tPA-mediated plasminogen activation, plasminogen was preincubated with increasing concentrations of VHHs. After addition of tPA, plasmin generation was measured over time using a fluorogenic plasmin peptide substrate.
# FIG. 5. Influence of VHHs on tPA-mediated plasminogen activation. […] After addition of tPA (10 nM final concentration) plasmin generation was measured over time using the fluorogenic plasmin assay. The data are presented as mean±SD of three independent measurements.
# Plasminogen (50 nM) was incubated with VHHs (2 μM to 0.2 μM) for 30 min at 37° C. in assay buffer. Subsequently, 20 μl of 50 nM tPA was added to the mixture and incubated at 37° C. After 3 hours of incubation at 37° C., 50 μl of the mixture were transferred to the wells of black F16 Fluoronunc modules and after addition of 50 μl of the plasmin-specific fluorogenic substrate (800 μM) fluorescence intensities were measured at λex of 360 nm and λem of 460 nm using the Synergy 2 microplate reader.
# human plasmin [6] = target: T3, human plasmin (human, UniProt P00747 97-580; P00747 581-810); experiment: BLI (BLItz), His-tagged VHH on anti-HIS biosensor
# T3 construct: domain: heavy chain or A-chain;domain: light chain that contains the serine protease domain; Two-chain protease derived from plasminogen; also called PLM; human Lys-plasmin
# mouse plasminogen = target: T4, mouse plasminogen (mouse, UniProt P20918 20-812); experiment: BLI (BLItz), His-tagged VHH on anti-HIS biosensor
# T4 construct: mature; also called mouse Glu-plasminogen
# human plasminogen = target: T5, human plasminogen (human, UniProt P00747 20-810); experiment: BLI (BLItz), His-tagged VHH on anti-HIS biosensor
# T5 construct: mature; Purchased plasma-derived Glu-plasminogen or in-house plasma-purified plasminogen; also called human PLG; plasma derived human Glu-plasminogen
# [7] = target: T6, tissue plasminogen activator (recombinant tPA, Actilyse) (UniProt P00750 36-562); experiment: BLI (BLItz), His-tagged VHH on anti-HIS biosensor
# T6 construct: Actilyse is recombinant human tPA (alteplase)
# mouse plasmin = target: T7, mouse plasmin (mouse, UniProt P20918 98-581; P20918 582-812); experiment: BLI (BLItz), His-tagged VHH on anti-HIS biosensor
# T7 construct: domain: heavy chain or A-chain;domain: light chain that contains the serine protease domain; Purchased from Haematologic Technologies
# human plasmin [8] = target: T3, human plasmin; experiment: competition ELISA: C5 coated on the plate (10 µg/ml), plasmin 10 nM with free A11 as competitor of immobilized C5; bound plasmin read by hydrolysis of a fluorogenic substrate
# Procedure: (§2) FIG. 2. VHHs competition ELISA. […] Data represent the mean±SD of two measurements.
# (§3) To assess the competition of VHHs for similar or overlapping binding sites on the plasmin molecule, a competition ELISA was performed. Microtiter (96-well) plates were coated with VHHs (10 μg/ml in coating buffer, 100 μl/well) at 2-8° C. overnight. Wells were washed and non-specific protein-binding sites were blocked with 20 mg/ml bovine serum albumine (BSA) for 2 h at RT. After removing the blocking buffer, wells were overlaid with a reaction mixture containing plasmin (10 nM) and VHHs (0.316 nM-31.6 μM) in buffer (20 mM HEPES, 154 mM NaCl, BSA 1 mg/ml, pH 7.4) for 30 min at RT. After washing the amount of bound plasmin was quantified through hydrolysis rates of the fluorogenic plasmin substrate (300 μM, 100 μl/well). The fluorescence intensity measured in the absence of free VHHs was set as 100%.
# human plasmin [9] = target: T3, human plasmin; experiment: cell-based or functional assay
# human plasmin [10] = target: T3, human plasmin; experiment: cell-based or functional assay; remark: listed apart in the source
# human plasmin [11] = target: T3, human plasmin; experiment: competition ELISA: A11 coated on the plate (10 µg/ml), plasmin 10 nM with free A11 (self-competition); bound plasmin read by hydrolysis of a fluorogenic substrate
# Procedure: as §2, §3
# plasmin [12] = target: T1, plasmin; experiment: Plasmin inhibition assay (α2-AP-mediated plasmin inactivation); type: biochemical; settings: α2AP alone, molar excess of α2AP over plasmin
# Procedure: FIG. 7. Impact of VHHs binding on α2-AP-mediated plasmin inactivation. […] After 30 min of incubation, the residual activity of plasmin was measured by addition of 50 μl of the sample to 50 μl of a plasmin-specific fluorogenic substrate (400 μM). The plasmin activity in the wells in the absence of VHHs and α2AP was considered as 100% activity and relative residual plasmin activities calculated accordingly. The data are presented as mean±SD of three independent measurements.
# After incubation for 30 min at 37° C., 50 μl of the mixture were transferred to the wells of black F16 Fluoronunc modules and 50 μl of plasmin-specific fluorogenic substrate (800 μM) were added and substrate hydrolysis measured at λex of 360 nm and λem of 460 nm. The plasmin activity in the reactions containing all reagents except α2-AP was set as 100%.
# human plasmin [13] = target: T3, human plasmin; experiment: competition ELISA: C5 coated on the plate (10 µg/ml), plasmin 10 nM with free C5 (self-competition); bound plasmin read by hydrolysis of a fluorogenic substrate
# Procedure: as §2, §3
# human plasmin [14] = target: T3, human plasmin; experiment: competition ELISA: A11 coated on the plate (10 µg/ml), plasmin 10 nM with free C5 as competitor of immobilized A11; bound plasmin read by hydrolysis of a fluorogenic substrate
# Procedure: as §2, §3
# T3 sequence (P00747 97-580 limits assumed, chain 1 of 2): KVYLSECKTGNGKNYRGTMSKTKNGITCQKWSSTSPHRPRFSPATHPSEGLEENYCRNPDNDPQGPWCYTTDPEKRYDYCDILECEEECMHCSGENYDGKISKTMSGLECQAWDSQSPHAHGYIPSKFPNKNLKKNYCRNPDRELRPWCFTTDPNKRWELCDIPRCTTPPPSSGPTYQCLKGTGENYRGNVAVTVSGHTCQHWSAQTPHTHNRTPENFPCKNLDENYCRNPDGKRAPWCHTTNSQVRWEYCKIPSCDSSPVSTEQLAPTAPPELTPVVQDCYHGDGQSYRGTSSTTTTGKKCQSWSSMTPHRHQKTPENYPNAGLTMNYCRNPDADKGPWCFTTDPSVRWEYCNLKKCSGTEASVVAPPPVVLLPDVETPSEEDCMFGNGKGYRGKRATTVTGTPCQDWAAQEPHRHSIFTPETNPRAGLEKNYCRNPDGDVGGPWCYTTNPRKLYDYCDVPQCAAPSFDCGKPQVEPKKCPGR
# T3 sequence (P00747 581-810 limits assumed, chain 2 of 2): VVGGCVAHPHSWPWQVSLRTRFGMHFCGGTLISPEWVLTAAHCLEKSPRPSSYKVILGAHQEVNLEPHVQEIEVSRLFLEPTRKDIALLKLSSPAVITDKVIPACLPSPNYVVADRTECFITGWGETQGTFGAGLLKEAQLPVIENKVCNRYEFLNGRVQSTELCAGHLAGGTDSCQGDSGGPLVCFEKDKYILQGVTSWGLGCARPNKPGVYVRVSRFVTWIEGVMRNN
# T1 sequence (P00747 97-580 limits assumed): as the sequence (P00747 97-580 limits assumed, chain 1 of 2) above
# T1 sequence (P00747 581-810 limits assumed): as the sequence (P00747 581-810 limits assumed, chain 2 of 2) above
# T6 sequence (P00750 36-562 limits assumed): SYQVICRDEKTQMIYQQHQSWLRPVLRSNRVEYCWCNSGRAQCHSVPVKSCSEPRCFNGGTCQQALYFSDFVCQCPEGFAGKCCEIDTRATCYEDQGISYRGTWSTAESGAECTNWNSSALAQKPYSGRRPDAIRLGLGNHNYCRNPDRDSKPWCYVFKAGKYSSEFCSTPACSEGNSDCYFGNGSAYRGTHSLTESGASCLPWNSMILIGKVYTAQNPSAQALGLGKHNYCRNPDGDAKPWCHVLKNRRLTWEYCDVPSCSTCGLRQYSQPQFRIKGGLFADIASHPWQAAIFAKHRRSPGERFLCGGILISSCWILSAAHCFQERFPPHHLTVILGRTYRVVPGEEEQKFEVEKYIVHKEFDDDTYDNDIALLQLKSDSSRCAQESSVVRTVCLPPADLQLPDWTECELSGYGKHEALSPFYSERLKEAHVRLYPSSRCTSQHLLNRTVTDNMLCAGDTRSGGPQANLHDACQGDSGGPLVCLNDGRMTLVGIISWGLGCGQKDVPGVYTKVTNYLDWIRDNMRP
# T5 sequence (P00747 20-810 limits assumed): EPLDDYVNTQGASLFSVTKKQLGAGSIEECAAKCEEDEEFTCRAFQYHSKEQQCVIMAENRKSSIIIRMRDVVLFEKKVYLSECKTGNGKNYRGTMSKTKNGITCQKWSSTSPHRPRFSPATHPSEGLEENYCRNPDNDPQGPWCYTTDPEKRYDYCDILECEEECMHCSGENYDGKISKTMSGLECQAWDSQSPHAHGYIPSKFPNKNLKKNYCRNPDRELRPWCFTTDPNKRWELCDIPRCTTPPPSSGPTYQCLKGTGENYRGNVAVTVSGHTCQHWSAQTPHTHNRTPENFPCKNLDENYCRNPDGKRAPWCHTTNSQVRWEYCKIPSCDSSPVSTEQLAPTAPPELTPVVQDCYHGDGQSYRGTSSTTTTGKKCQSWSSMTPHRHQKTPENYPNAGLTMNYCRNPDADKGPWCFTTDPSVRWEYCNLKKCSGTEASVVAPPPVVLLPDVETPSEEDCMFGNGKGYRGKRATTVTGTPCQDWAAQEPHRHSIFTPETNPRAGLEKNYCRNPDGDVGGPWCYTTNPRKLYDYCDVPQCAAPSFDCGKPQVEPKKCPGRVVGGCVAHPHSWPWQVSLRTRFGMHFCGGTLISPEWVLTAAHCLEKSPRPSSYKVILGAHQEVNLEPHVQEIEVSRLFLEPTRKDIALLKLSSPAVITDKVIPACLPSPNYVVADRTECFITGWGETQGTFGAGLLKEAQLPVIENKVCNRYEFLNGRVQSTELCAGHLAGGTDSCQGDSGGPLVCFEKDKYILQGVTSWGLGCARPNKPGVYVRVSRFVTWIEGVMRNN
# T4 sequence (P20918 20-812 limits assumed): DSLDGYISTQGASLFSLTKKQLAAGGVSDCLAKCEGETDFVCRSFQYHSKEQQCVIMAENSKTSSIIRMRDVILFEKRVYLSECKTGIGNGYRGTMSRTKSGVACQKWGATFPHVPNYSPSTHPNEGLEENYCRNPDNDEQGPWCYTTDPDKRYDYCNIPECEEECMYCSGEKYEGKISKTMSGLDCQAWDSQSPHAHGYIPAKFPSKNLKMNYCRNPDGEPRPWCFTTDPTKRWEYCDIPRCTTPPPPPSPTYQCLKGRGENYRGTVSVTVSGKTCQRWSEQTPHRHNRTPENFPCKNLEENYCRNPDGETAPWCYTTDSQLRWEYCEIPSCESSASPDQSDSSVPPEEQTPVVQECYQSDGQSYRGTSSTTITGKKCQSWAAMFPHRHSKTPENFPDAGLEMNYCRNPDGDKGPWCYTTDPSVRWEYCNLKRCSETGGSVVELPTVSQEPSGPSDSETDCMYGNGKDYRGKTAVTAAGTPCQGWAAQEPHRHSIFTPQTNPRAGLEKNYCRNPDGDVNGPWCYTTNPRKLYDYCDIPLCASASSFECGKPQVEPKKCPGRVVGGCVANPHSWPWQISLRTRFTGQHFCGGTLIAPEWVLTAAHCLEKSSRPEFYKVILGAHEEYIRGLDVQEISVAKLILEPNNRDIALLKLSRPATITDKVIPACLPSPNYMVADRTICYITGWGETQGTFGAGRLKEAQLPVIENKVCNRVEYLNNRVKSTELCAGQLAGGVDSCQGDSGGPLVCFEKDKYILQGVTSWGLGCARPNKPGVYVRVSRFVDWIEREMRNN
# T7 sequence (P20918 98-581 limits assumed, chain 1 of 2): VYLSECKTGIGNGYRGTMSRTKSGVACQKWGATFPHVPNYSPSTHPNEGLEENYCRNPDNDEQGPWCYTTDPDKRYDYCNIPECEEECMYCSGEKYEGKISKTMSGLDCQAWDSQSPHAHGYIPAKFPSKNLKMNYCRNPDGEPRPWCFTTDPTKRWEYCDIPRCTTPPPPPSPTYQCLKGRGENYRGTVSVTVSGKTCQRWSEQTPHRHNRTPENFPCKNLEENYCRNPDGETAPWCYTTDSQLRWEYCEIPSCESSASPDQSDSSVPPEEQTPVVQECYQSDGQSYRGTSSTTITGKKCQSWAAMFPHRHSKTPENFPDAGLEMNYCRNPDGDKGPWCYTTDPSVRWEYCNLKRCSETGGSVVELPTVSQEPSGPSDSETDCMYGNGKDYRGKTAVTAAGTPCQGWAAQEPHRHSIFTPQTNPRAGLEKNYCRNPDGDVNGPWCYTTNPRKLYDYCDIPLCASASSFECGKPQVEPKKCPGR
# T7 sequence (P20918 582-812 limits assumed, chain 2 of 2): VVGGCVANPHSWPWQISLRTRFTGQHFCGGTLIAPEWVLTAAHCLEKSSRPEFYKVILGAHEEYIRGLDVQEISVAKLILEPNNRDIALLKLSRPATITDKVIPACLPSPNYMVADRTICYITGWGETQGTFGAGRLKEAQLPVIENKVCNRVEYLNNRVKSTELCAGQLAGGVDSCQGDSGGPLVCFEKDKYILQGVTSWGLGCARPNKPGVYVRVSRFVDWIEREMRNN
# T2 sequence (P00747 20-810 limits assumed): as the sequence (P00747 20-810 limits assumed) above
Kd (human plasmin [6]) [nM],Kd (mouse plasminogen) [nM],Kd (human plasminogen) [nM],Kd [7] [nM],Kd (mouse plasmin) [nM],"Kcat/Km of plasmin-mediated cleavage of fluorogenic peptide substrate, VHH 1 µM (human plasmin [9]) [M⁻¹ s⁻¹]","kcat of plasmin-mediated cleavage of fluorogenic peptide substrate, VHH 1 µM (human plasmin [9]) [s⁻¹]",Molecule,other results
–,–,–,–,–,–,–,"NC[C@H]1CC[C@H](C(=O)O)CC1 [TXA, tranexamic acid, reference compound]","effect on fibrin clot formation parameters (clotting time, maximum clot firmness, maximum clot elasticity) [1]: does not affect; effect on lysis compared to VHHs (FIG. 4C, maximum lysis rates) [2]: inhibition of lysis; protection of plasmin from autocatalytic degradation (plasmin [3]): more effective than lysine; maximal rate of inhibition of plasmin-mediated cleavage of FVa (plasmin [4]; TXA 316 μM or higher): 48%; FVa cleavage at lower TXA concentrations (plasmin [4]; lower TXA concentrations): accelerated; kcat × 10^3 (s^−1) mean (95% CI) (plasmin [5]): 42.1 (40-44) s^−1; inhibition of plasmin generation at higher concentrations (plasminogen): plasmin generation is blocked"
4.7,> 1000,> 100,941,87.3,2.28e+08,67200,"VHH A11 including C-terminal His6-tag (VHH, Alpaca-derived) VHH: QVQLVETGGGLVQAGGSLRLSCAASGNIFSINAMDWYRQAPGKERELVAAITSGGTTNYADSVKGRFTISRDNAKDTVYLQMNSLKPEDAAFYYCNADGYYSDYDKNLAEFNSWGQGTQVTVSS","IC50 (read off the curve) (human plasmin [8]): ~1000 nM; increase in plasmin peptide substrate conversion, at molar ratio of VHH over plasmin of 158 (human plasmin [10]): ~2.5 fold; IC50 (read off the curve) (human plasmin [11]): ~500 nM"
–,–,–,–,–,–,–,alpha2-antiplasmin (protein) NQEQVSPLTLLKLGNQEPGGQTALKSPPGVCSRDPTPEQTHRLARAMMAFTADLFSLVAQTSTCPNLILSPLSVALALSHLALGAQNHTLQRLQQVLHAGSGPCLPHLLSRLCQDLGPGAFRLAARMYLQKGFPIKEDFLEQSEQLFGAKPVSLTGKQEDDLANINQWVKEATEGKIQEFLSGLPEDTVLLLLNAIHFQGFWRNKFDPSLTQRDSFHLDEQFTVPVEMMQARTYPLRWFLLEQPEIQVAHFPFKNNMSFVVLVPTHFEWNVSQVLANLSWDTLHPPLVWERPTKVRLPKLYLKHQMDLVATLSQLGLQELFQAPDLRGISEQSLVVSGVQHQSTLELSEVGVEAAAATSIAMSRMSLSSFSVNRPFLFFIFEDTTGLPLFVGSVRNPNPSAPRELKEQQDSPGNKDFLQSLKGFPRGDKLFGPDLKLVPPMEEDYPQFGSPK,residual plasmin activity (plasmin [12]): < 0.1%
6.8,> 1000,> 100,213,172,2.44e+08,69900,"VHH C5 including C-terminal His6-tag (VHH, Alpaca-derived) VHH: QVQLVESGGGLVQAGGSLRLSCAASGRRFMVVAMGWYRQAPGNQRELVASITNGGTTNYAGSVKGRFTISGDSAKNTVYLHMNSLKPEDTAVYYCTTDVVFRDGNGQIQSNWGQGTQVTVSS","IC50 (read off the curve) (human plasmin [13]): ~2000 nM; increase in plasmin peptide substrate conversion, at molar ratio of VHH over plasmin of 500 (human plasmin [10]): ~2.5 fold; IC50 (read off the curve) (human plasmin [14]): ~500 nM"
